Source: IntAct's records for PubMed 29769718

B1: Ankyrin repeat domain-containing protein 16 (Mus musculus), A2AS55-1 (parent)
chain: MALPGDPRRLCRLVQEGRLRDLQEELAVARGCRGPAGDTLLHCAARHGRQDILAYLVEAWSMDIEATNRDYKRPLHEAASMGHRDCVRYLLGRGAVVDSLKKADWTPLMMACTRKNLDVIQDLVEHGANPLLKNKDGWNSFHIASREGHPVILRYLLTVCPDAWKTESNIRRTPLHTAAMHGCLEAVQVLLERCHYEPDCRDNCGVTPFMDAIQCGHVSIAKLLLEQHKACSSAADSMGAQALHRAAVTGQDEAIRFLVCGLGIDVDVRAKSSQLTALHYAAKEGQTNTVQTLLSLGADINSTDERNRSVLHLACAGQHVACTRLLLQSGLKDSEDLTGTLAQQLTRSVDILQDFDHDVKS
B2: Alanine--tRNA ligase, cytoplasmic (Mus musculus), Q8BGQ7 (parent)
chain: MDATLTAREIRERFINFFRRNEHTYVHSSATIPLDDPTLLFANAGMNQFKPIFLNTIDPSHPMAKLSRAANTQKCIRAGGKHNDLDDVGKDVYHHTFFEMLGSWSFGDYFKELACKMALELLTQEFGIPVERLYVTYFGGDEAAGLEPDLECRQIWQNLGLDEARILPGNMKDNFWEMGDTGPCGPCSEIHYDRIGGRDAAHLVNQDDPNVLEIWNLVFIQYNRESDGVLKPLPKKSIDTGMGLERLVSVLQNKMSNYDTDLFMPYFEAIQKGTGARPYTGKVGAEDADGIDMAYRVLADHARTITVALADGGRPDNTGRGYVLRRILRRAVRYSHEKLNASRGFFATLVDVVVQSLGDAFPELKKDPEMVKDIINEEEVQFLKTLSRGRRILDRKIQSLGDCKTIPGDTAWLLYDTYGFPVDLTGLIAEEKGLVVDMNGFEEERRLAQLKSQGKGAGDEDLIMLDIYAIEELRAKGLEATDDSPKYNYQSDSSGSYVFECTVATVLALRREKMFVDEVVTGQECGVVLDKTCFYAEQGGQIYDEGYLVKVDDSSEDKTEFTVKNAQVRGGYVLHIGTIYGNLKVGDQVRLFIDEPRRRPVMSNHTATHILNFALRSVLGEADQKGSLVAPDRLRFDFTAKGAMSTQQIKKAEEIVNGMIEAAKPVYTQDCPLAAAKAIQGLRAVFDETYPDPVRVVSIGVPVSELLDDPCGPAGSLTSVEFCGGTHLRNSSHAGAFVIVTEEAIAKGIRRIVAVTGAEAQKALRKSETLKKSLSAMEAKVKAQTAPNKDVQREIADLGEALATAVIPQWQKDEQRETLKSLKKVMDDLDRASKADVQKRVLEKTKQLIDSNPNQPLVILEMESGASAKALNEALKLFKTHSPQTSAMLFTVDNEAGKITCLCQVPQNAANRGLKASEWVQQVSGLMDGKGGGKDMSAQATGKNVGCLQEALQLATSFAQLRLGDVKN

Variants of: B1
Conditions: with syac_mouse Aars1, Q8BGQ7

Variant | effect of a mutation on the interaction
K102R;K135R;K165R | disrupting interaction strength

Variants of: B2
Conditions: with Ankrd16, A2AS55-1

Variant | effect of a mutation on the interaction
A734E | with no effect
